Source: patent US20210253718A1, “FRIZZLED5 PROTEIN-BINDING AGENTS” (Modmab Therapeutics Corporation, priority 2016, published 2021)
Positions count from the first letter of the chain named. Each block holds one molecule with its values, some of them ahead of it.

Key:
FZD3 CRD = target: T1, FZD3 CRD (Homo sapiens, UniProt Q9NPG1); test: Immunofluorescence of anti-FZD5 Fab binding to CHO cells overexpressing Frizzled CRD; set-up: key: −: no binding; +: very weak binder; ++: weak binder; +++: good binder; ++++: very good binder
T1 construct: CRD of FZD1, FZD2, FZD3, FZD4, FZD5, FZD6, FZD7, FZD8, FZD9 or FZD10; GPI anchor signal (C); expressed in transfected cells; host or cells: CHO cells, lentiviral pLenti-puro
T1 sequence (Q9NPG1 23-136 limits assumed): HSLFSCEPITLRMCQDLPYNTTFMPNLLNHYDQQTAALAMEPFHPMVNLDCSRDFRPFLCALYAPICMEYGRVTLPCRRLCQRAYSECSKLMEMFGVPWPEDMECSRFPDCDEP
In short: (§1)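 CHO panel, 10 lines, each w/ one human FZD CRD-myc-GPI (lentiviral). Anti-FZD5 Fabs applied; surface binding scored by IF, cross-checked by FACS.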

FZD7 CRD = target: T2, FZD7 CRD (Homo sapiens, UniProt O75084); test: as above; set-up: key: −: no binding; +: very weak binder; ++: weak binder; +++: good binder; ++++: very good binder
T2 construct: D45-S169; GPI anchor signal (C); expressed in transfected cells; host or cells: CHO cells, lentiviral pLenti-puro
In short: as §1

FZD8 CRD = target: T3, FZD8 CRD (Homo sapiens, UniProt Q9H461); test: as above; set-up: key: −: no binding; +: very weak binder; ++: weak binder; +++: good binder; ++++: very good binder
T3 construct: K31-D155; GPI anchor signal (C); expressed in transfected cells; host or cells: CHO cells, lentiviral pLenti-puro
T3 sequence (Q9H461 31-155): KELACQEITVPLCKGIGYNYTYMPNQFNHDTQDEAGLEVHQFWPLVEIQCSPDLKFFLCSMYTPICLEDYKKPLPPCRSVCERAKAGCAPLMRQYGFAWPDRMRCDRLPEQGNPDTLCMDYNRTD
In short: as §1

HPAFII cells = test: Effect of anti-FZD5 Fabs on proliferation of pancreatic cancer cell lines (percent growth inhibition); type: cell-based, human; details: for percent growth inhibition, HPAFII 2 μg/ml: Fab 2 μg/ml; for percent growth inhibition, HPAFII 10 μg/ml: Fab 10 μg/ml
Procedure: (§2) The effect of presently disclosed anti-FZD5 Fabs on proliferation of RNF43 loss-of-function mutant pancreatic cancer cell lines HPAFII, PATU8988S and ASPC-1; and on pancreatic cancer cell line RWP1, was tested at […] and 10 μg/ml.

[1] = system: CHO cells not expressing Frizzled CRD; test: Flow cytometry of anti-FZD5 Fab binding to CHO cells not expressing Frizzled CRD (background)
Excerpt: The binding of anti-FZD5 Fabs to cell surface-expressed Frizzled protein was further determined for each member of the Frizzled family via flow cytometry and immunofluorescence analysis of a panel of 10 CHO cell lines, each ectopically over-expressing the extracellular cysteine-rich domain (CRD) of a different Frizzled protein family member.

PATU8988S cells [2] = test: Effect of anti-FZD5 Fabs on proliferation of pancreatic cancer cell lines (percent growth inhibition); type: cell-based, human; details: Fab 2 μg/ml
ASPC-1 cells [3] = test: as above; type: cell-based, human; details: Fab 2 μg/ml
RWP1 cells [4] = test: as above; type: cell-based, human; details: Fab 2 μg/ml
ASPC-1 cells [5] = test: as above; type: cell-based, human; details: Fab 10 μg/ml
Procedure: as §2

PATU8988S cells [6] = test: as above; type: cell-based, human; details: Fab 10 μg/ml
Procedure: as §2

RWP1 cells [7] = test: as above; type: cell-based, human; details: Fab 10 μg/ml
Procedure: as §2

Immunofluorescence binding, Frizzled CRD overexpressed on CHO cells: FZD3 (FZD3 CRD): − | Immunofluorescence binding, Frizzled CRD overexpressed on CHO cells: FZD7 (FZD7 CRD): +++ | Immunofluorescence binding, Frizzled CRD overexpressed on CHO cells: FZD8 (FZD8 CRD): −
B1: Fab-2911: anti-FZD5 Fab with antibody variable region Fv-2911; CDR SEQ ID NOs: 35, 36, 50, 89, 126, 163 (antibody, V domains shown)
VH: EVQLVESGGGLVQPGGSLRLSCAASGFNIYYSSMHWVRQAPGKGLEWVAYIYPYSGYTSYADSVKGRFTISADTSKNTAYLQMNSLRAEDTAVYYCARYFWWYGFDYWGQGTLVTVSS
VL: DIQMTQSPSSLSASVGDRVTITCRASQSVSSAVAWYQQKPGKAPKLLIYSASSLYSGVPSRFSGSRSGTDFTLTISSLQPEDFATYYCQQGPWYPFTFGQGTKVEIK
percent growth inhibition, HPAFII 2 μg/ml (HPAFII cells): 2.08% | Median fluorescence, Frizzled CRD overexpressed on CHO cells: None [1]: 4.53 | percent growth inhibition, PATU8988s 2 μg/ml (PATU8988S cells [2]): 8.24% | percent growth inhibition, ASPC-1 2 μg/ml (ASPC-1 cells [3]): 3.18% | percent growth inhibition, RWP1 2 μg/ml (RWP1 cells [4]): 20.34%

Immunofluorescence binding, Frizzled CRD overexpressed on CHO cells: FZD3 (FZD3 CRD): − | Immunofluorescence binding, Frizzled CRD overexpressed on CHO cells: FZD7 (FZD7 CRD): +++ | Immunofluorescence binding, Frizzled CRD overexpressed on CHO cells: FZD8 (FZD8 CRD): +
B2: Fab-2898: anti-FZD5 Fab with antibody variable region Fv-2898; CDR SEQ ID NOs: 35, 36, 37, 76, 113, 152 (antibody, V domains shown)
VH: EVQLVESGGGLVQPGGSLRLSCAASGFNIYSYSMHWVRQAPGKGLEWVASIYSSSGSTSYADSVKGRFTISADTSKNTAYLQMNSLRAEDTAVYYCARAVWGLDYWGQGTLVTVSS
VL: DIQMTQSPSSLSASVGDRVTITCRASQSVSSAVAWYQQKPGKAPKLLIYSASSLYSGVPSRFSGSRSGTDFTLTISSLQPEDFATYYCQQWWGYYSLITFGQGTKVEIK
percent growth inhibition, ASPC-1 10 μg/ml (ASPC-1 cells [5]): 25.15% | percent growth inhibition, HPAFII 2 μg/ml (HPAFII cells): 15.80% | percent growth inhibition, HPAFII 10 μg/ml (HPAFII cells): 21.87% | percent growth inhibition, PATU8988s 10 μg/ml (PATU8988S cells [6]): 0.97% | percent growth inhibition, RWP1 10 μg/ml (RWP1 cells [7]): 26.93% | Median fluorescence, Frizzled CRD overexpressed on CHO cells: None [1]: 5.38 | percent growth inhibition, PATU8988s 2 μg/ml (PATU8988S cells [2]): 4.53% | percent growth inhibition, ASPC-1 2 μg/ml (ASPC-1 cells [3]): 11.14% | percent growth inhibition, RWP1 2 μg/ml (RWP1 cells [4]): 21.46%

Immunofluorescence binding, Frizzled CRD overexpressed on CHO cells: FZD3 (FZD3 CRD): − | Immunofluorescence binding, Frizzled CRD overexpressed on CHO cells: FZD7 (FZD7 CRD): +++ | Immunofluorescence binding, Frizzled CRD overexpressed on CHO cells: FZD8 (FZD8 CRD): +
B3: Fab-2899: anti-FZD5 Fab with antibody variable region Fv-2899; CDR SEQ ID NOs: 35, 36, 38, 77, 114, 153 (antibody, V domains shown)
VH: EVQLVESGGGLVQPGGSLRLSCAASGFNLYYYYMHWVRQAPGKGLEWVASIYPSSGSTSYADSVKGRFTISADTSKNTAYLQMNSLRAEDTAVYYCARGALDYWGQGTLVTVSS
VL: B2 VL with W92Y, G93S, Y94S, S96G
percent growth inhibition, ASPC-1 10 μg/ml (ASPC-1 cells [5]): 33.63% | percent growth inhibition, HPAFII 2 μg/ml (HPAFII cells): 36.18% | percent growth inhibition, HPAFII 10 μg/ml (HPAFII cells): 55.71% | percent growth inhibition, PATU8988s 10 μg/ml (PATU8988S cells [6]): −3.10% | percent growth inhibition, RWP1 10 μg/ml (RWP1 cells [7]): 47.83% | Median fluorescence, Frizzled CRD overexpressed on CHO cells: None [1]: 4.91 | percent growth inhibition, PATU8988s 2 μg/ml (PATU8988S cells [2]): 4.94% | percent growth inhibition, ASPC-1 2 μg/ml (ASPC-1 cells [3]): 37.97% | percent growth inhibition, RWP1 2 μg/ml (RWP1 cells [4]): 37.95%
